T1: human GIP receptor (hGIPr) (Homo sapiens, UniProt P48546)
T1 construct: expressed in transfected cells
T1 sequence (P48546 22-466): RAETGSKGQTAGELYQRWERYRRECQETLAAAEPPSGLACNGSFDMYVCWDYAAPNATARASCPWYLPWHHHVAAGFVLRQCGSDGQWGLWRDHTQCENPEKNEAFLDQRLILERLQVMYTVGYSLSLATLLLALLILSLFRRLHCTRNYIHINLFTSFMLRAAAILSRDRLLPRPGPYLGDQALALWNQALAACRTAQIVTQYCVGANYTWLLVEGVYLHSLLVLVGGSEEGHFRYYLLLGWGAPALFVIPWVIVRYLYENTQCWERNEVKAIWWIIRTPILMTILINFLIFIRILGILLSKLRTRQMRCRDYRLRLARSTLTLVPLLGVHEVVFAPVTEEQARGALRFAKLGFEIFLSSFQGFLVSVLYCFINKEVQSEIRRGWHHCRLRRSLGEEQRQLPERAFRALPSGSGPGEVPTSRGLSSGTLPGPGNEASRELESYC

T2: rat GLP-1 receptor (rGLP-1r) (Rattus norvegicus, UniProt P32301)
T2 construct: expressed in transfected cells; host or cells: HEK293s or CHO cells
T2 sequence (P32301 22-463): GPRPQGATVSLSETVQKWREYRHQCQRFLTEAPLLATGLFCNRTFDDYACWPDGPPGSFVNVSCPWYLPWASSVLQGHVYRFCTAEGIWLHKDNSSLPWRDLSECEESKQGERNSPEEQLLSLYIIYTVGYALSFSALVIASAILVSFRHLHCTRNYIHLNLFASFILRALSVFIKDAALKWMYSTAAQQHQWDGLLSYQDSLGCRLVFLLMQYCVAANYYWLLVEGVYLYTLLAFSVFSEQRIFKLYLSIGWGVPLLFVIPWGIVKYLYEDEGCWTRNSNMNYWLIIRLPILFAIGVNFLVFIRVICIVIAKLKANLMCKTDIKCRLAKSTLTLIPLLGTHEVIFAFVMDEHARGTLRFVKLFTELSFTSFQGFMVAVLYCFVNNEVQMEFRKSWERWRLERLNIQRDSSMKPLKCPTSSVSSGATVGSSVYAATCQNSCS

T3: mouse GIP receptor (mGIPr) (Mus musculus, UniProt Q0P543)
T3 construct: expressed in transfected cells; host or cells: HEK293s or CHO cells
T3 sequence (Q0P543 19-460): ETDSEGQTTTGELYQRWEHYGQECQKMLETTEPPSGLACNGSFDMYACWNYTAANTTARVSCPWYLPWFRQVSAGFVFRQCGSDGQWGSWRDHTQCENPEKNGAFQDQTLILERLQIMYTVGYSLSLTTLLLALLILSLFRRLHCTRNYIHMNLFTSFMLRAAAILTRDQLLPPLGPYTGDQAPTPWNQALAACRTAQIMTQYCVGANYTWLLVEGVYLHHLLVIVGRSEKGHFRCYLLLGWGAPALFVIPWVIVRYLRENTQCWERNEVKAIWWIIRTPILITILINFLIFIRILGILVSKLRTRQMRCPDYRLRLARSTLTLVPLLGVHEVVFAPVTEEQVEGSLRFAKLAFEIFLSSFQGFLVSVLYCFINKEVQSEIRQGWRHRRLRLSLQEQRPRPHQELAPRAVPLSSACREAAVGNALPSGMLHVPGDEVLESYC

B1: IP367 (protein)
chain: YSEGTFTSDYRILKERQAIDEFIAWLLKGGAAAGGSGSTASSGSGSATGGGGAATHTCPPC
B2: IP088: Fc fusion, IgG1-TM, SEQ ID NO:105; agonist peptide YSEGTFTSDYSKLLEEEAVRLFIEWLVKGP (SEQ ID NO:15) (protein)
chain: YSEGTFTSDYSKLLEEEAVRLFIEWLVKGPAAAGGSGSTASSGSGSATGGGGAATHTCPPCPAPEF
modifications: also: Fc fusion, IgG1-TM

Key:
Assay type in all cases: cell-based
[1] = target: T4, human GLP-1 receptor (hGLP-1r) (Homo sapiens, UniProt P43220); test: BSA-cAMP assay, cells expressing human GLP-1 receptor
T4 construct: expressed in transfected cells
Procedure, shortened: (§1)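 EC50 came from an unconstrained 4-parameter logistic fit of HTRF cAMP data expressed as percent of maximal native agonist activation, tested on two occasions. Thawed receptor-expressing cells (hGLP-1r, hGIPr at 0.5×10^5 cells/ml) treated 30 min at room temperature in 0.1% BSA-containing medium; two distinct hGIPr lines.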

[2] = target: T1, human GIP receptor (hGIPr); test: BSA-cAMP assay, cells expressing human GIP receptor
Procedure, shortened: as §1

[3] = target: T2, rat GLP-1 receptor (rGLP-1r); test: BSA-cAMP assay, cells expressing rat GLP-1 receptor
Procedure, shortened: (§2)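 EC50 is the midpoint of an unconstrained 4-parameter logistic fit to HTRF cAMP data, expressed as percent of maximal native agonist response, from two separate occasions. Rodent (mouse, rat) GLP-1R- or GIPR-expressing cells were incubated with compound 30 min at room temperature in 0.1% BSA medium, in duplicate.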

[4] = target: T3, mouse GIP receptor (mGIPr); test: BSA-cAMP assay, cells expressing mouse GIP receptor
Procedure, shortened: as §2

T4 sequence (P43220 24-463): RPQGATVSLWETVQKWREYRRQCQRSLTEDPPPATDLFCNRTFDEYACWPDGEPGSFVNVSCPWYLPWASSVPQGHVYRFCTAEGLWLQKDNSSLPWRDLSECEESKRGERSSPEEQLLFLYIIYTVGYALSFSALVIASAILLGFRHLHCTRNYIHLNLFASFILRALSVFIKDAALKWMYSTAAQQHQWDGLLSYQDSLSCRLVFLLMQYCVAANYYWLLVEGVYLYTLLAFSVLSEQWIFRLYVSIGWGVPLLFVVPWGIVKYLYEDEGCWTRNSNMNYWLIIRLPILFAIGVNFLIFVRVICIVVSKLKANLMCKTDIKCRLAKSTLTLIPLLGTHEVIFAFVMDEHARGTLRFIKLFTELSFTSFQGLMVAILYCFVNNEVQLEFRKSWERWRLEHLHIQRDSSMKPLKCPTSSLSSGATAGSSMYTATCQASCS

Molecule	EC50 ([1]; Batch 1, BSA-cAMP assay, read-out: hGLP1r cAMP activity EC50) [nM]	EC50 ([2]; Batch 1, BSA-cAMP assay, read-out: hGIPr cAMP activity EC50) [nM]	EC50 ([3]; Batch 1, BSA-cAMP assay, read-out: rGLP1r cAMP activity EC50) [nM]	EC50 ([4]; Batch 1, BSA-cAMP assay, read-out: mGIPr cAMP activity EC50) [nM]	potency for GLP-1r, in words ([1]; human receptor)	potency for GIPr, in words ([2]; human receptor)	potency for GLP-1r, in words ([3]; rat receptor)	potency for GIPr, in words ([4]; mouse receptor)
B1	4.4	0.057	8	0.031				
B2					high potency	high potencies	high potency	relatively lower potency

— patent US20160185837A1 (Medimmune Limited, priority 2013, published 2016)
